Data: US8389575B2, “Control of enzymatic peracid generation” (E.I. du Pont de Nemours and Company, priority 2008, dated 2013)

Experiment: Peracetic acid production by Thermotoga neapolitana perhydrolase, control by bicarbonate buffer concentration
Assay type: biochemical
Settings: 100 mM triacetin
Description: A cell extract of an E. coli transformant expressing perhydrolase from Thermotoga neapolitana (KLP18/pSW196) was prepared by passing a suspension of cell paste (20 wt % wet cell weight) in 0.05 M potassium phosphate buffer (pH 7.0) containing dithiothreitol (1 mM) twice through a French press having a working pressure of 16,000 psi (˜110 MPa). The crude extract was then centrifuged at 20,000×g to remove cellular debris, producing a clarified cell extract that was assayed for total soluble protein (Bicinchoninic Acid Kit for Protein Determination, Sigma Aldrich catalog #BCA1-KT). The clarified extract was heated for 20 min at 75° C., followed immediately by cooling in an ice/water bath. The resulting mixture was centrifuged to remove precipitated protein, and the supernatant collected and assayed for total soluble protein as before. […] The supernatant was frozen in dry ice and stored at −80° C.
Reactions (10 mL total volume) containing triacetin, hydrogen peroxide and heat-treated, centrifuged cell extract supernatant (prepared as described above) were run at 25° C. using sodium bicarbonate buffer concentrations listed in Tables 7 and 8. A control reaction for each reaction condition was run to determine the concentration of peracetic acid produced by chemical perhydrolysis of triacetin by hydrogen peroxide in the absence of added extract protein. Determination of the concentration of peracetic acid in the reaction mixtures was performed according to the method described by Karst et al., supra. Aliquots (0.040 mL) of the reaction mixture were removed at predetermined times and mixed with 0.960 mL of 5 mM phosphoric acid in water; adjustment of the pH of the diluted sample to less than pH 4 immediately terminated the reaction. The resulting solution was filtered using an ULTRAFREE® MC-filter unit (30,000 Normal Molecular Weight Limit (NMWL), Millipore cat #UFC3LKT 00) by centrifugation for 2 min at 12,000 rpm. An aliquot (0.100 mL) of the resulting filtrate was transferred to L5-mL screw cap HPLC vial (Agilent Technologies, Palo Alto, Calif.; #5182-0715) containing 0.300 mL of deionized water, then 0.100 mL of 20 mM MTS (methyl-p-tolyl-sulfide) in acetonitrile was added, the vials capped, and the contents briefly mixed prior to a 10 min incubation at ca. 25° C. in the absence of light. To each vial was then added 0.400 mL of acetonitrile and 0.100 mL of a solution of triphenylphosphine (TPP, 40 mM) in acetonitrile, the vials re-capped, and the resulting solution mixed and incubated at ca. 25° C. for 30 min in the absence of light. To each vial was then added 0.100 mL of 10 mM N,N-diethyl-m-toluamide (DEET; HPLC external standard) and the resulting solution analyzed by HPLC as described below.
Supelco Discovery C8 column (10-cm×4.0-mm, 5 μm) (cat. #569422-U) w/precolumn Supelco Supelguard Discovery C8 (Sigma-Aldrich; cat #59590-U); 10 microliter injection volume; gradient method with CH3CN (Sigma-Aldrich; #270717) and deionized water at 1.0 mL/min and ambient temperature:
The peracetic acid concentrations produced in 1 min, 5 min and 30 min when using either 250 mM or 100 mM hydrogen peroxide are listed in Table 7 and Table 8, respectively.

B1: Thermotoga neapolitana perhydrolase: acetyl xylan esterase with perhydrolase activity from Thermotoga neapolitana (SEQ ID NO: 14), cell extract of E. coli KLP18/pSW196 (protein, listed as Thermotoga neapolitana)
chain: MAFFDMPLEELKKYRPERYEEKDFDEFWRETLKESEGFPLDPVFEKVDFHLKTVETYDVTFSGYRGQRIKGWLLVPKLAEEKLPCVVQYIGYNGGRGFPHDWLFWPSMGYICFVMDTRGQGSGWMKGDTPDYPEGPVDPQYPGFMTRGILDPGTYYYRRVFVDAVRAVEAAISFPRVDSRKVVVAGGSQGGGIALAVSALSNRVKALLCDVPFLCHFRRAVQLVDTHPYVEITNFLKTHRDKEEIVFRTLSYFDGVNFAARAKVPALFSVGLMDTICPPSTVFAAYNHYAGPKEIRIYPYNNHEGGGSFQAIEQVKFLKRLFEEG
For B1, the “PAA (ppm), 1 min” value (NaHCO3 0 mM, initial pH 5.0, 1 min, 100 mM H2O2, 50 μg/mL heated extract total protein) was 0 ppm, the “PAA (ppm), 1 min” value (NaHCO3 0 mM, initial pH 5.0, 1 min, 250 mM H2O2, 50 μg/mL heated extract total protein) was 161 ppm and the “PAA (ppm), 5 min” value (NaHCO3 0 mM, initial pH 5.0, 5 min, 100 mM H2O2, 50 μg/mL heated extract total protein) was 29 ppm. For the same molecule, the “PAA (ppm), 5 min” value (NaHCO3 0 mM, initial pH 5.0, 5 min, 250 mM H2O2, 50 μg/mL heated extract total protein) was 152 ppm, the “PAA (ppm), 30 min” value (NaHCO3 0 mM, initial pH 5.0, 30 min, 100 mM H2O2, 50 μg/mL heated extract total protein) was 11 ppm and the “PAA (ppm), 30 min” value (NaHCO3 0 mM, initial pH 5.0, 30 min, 250 mM H2O2, 50 μg/mL heated extract total protein) was 180 ppm. For the same molecule, the “PAA (ppm), 1 min” value (NaHCO3 1.0 mM, initial pH 6.0, 1 min, 100 mM H2O2, 50 μg/mL heated extract total protein) was 167 ppm, the “PAA (ppm), 1 min” value (NaHCO3 1.0 mM, initial pH 6.0, 1 min, 250 mM H2O2, 50 μg/mL heated extract total protein) was 511 ppm and the “PAA (ppm), 5 min” value (NaHCO3 1.0 mM, initial pH 6.0, 5 min, 100 mM H2O2, 50 μg/mL heated extract total protein) was 152 ppm. For the same molecule, the “PAA (ppm), 5 min” value (NaHCO3 1.0 mM, initial pH 6.0, 5 min, 250 mM H2O2, 50 μg/mL heated extract total protein) was 610 ppm, the “PAA (ppm), 30 min” value (NaHCO3 1.0 mM, initial pH 6.0, 30 min, 100 mM H2O2, 50 μg/mL heated extract total protein) was 176 ppm and the “PAA (ppm), 30 min” value (NaHCO3 1.0 mM, initial pH 6.0, 30 min, 250 mM H2O2, 50 μg/mL heated extract total protein) was 608 ppm. The “PAA (ppm), 1 min” value (NaHCO3 2.5 mM, initial pH 6.5, 1 min, 100 mM H2O2, 50 μg/mL heated extract total protein) was 291 ppm, the “PAA (ppm), 1 min” value (NaHCO3 2.5 mM, initial pH 6.5, 1 min, 250 mM H2O2, 50 μg/mL heated extract total protein) was 718 ppm and the “PAA (ppm), 5 min” value (NaHCO3 2.5 mM, initial pH 6.5, 5 min, 100 mM H2O2, 50 μg/mL heated extract total protein) was 510 ppm. For the same molecule, the “PAA (ppm), 5 min” value (NaHCO3 2.5 mM, initial pH 6.5, 5 min, 250 mM H2O2, 50 μg/mL heated extract total protein) was 1242 ppm, the “PAA (ppm), 30 min” value (NaHCO3 2.5 mM, initial pH 6.5, 30 min, 100 mM H2O2, 50 μg/mL heated extract total protein) was 488 ppm and the “PAA (ppm), 30 min” value (NaHCO3 2.5 mM, initial pH 6.5, 30 min, 250 mM H2O2, 50 μg/mL heated extract total protein) was 1179 ppm. The “PAA (ppm), 1 min” value (NaHCO3 5.0 mM, initial pH 6.5, 1 min, 100 mM H2O2, 50 μg/mL heated extract total protein) was 377 ppm, the “PAA (ppm), 1 min” value (NaHCO3 5.0 mM, initial pH 6.5, 1 min, 250 mM H2O2, 50 μg/mL heated extract total protein) was 866 ppm and the “PAA (ppm), 5 min” value (NaHCO3 5.0 mM, initial pH 6.5, 5 min, 100 mM H2O2, 50 μg/mL heated extract total protein) was 955 ppm. The “PAA (ppm), 5 min” value (NaHCO3 5.0 mM, initial pH 6.5, 5 min, 250 mM H2O2, 50 μg/mL heated extract total protein) was 1894 ppm, the “PAA (ppm), 30 min” value (NaHCO3 5.0 mM, initial pH 6.5, 30 min, 100 mM H2O2, 50 μg/mL heated extract total protein) was 989 ppm and the “PAA (ppm), 30 min” value (NaHCO3 5.0 mM, initial pH 6.5, 30 min, 250 mM H2O2, 50 μg/mL heated extract total protein) was 1931 ppm. For the same molecule, the “PAA (ppm), 1 min” value (NaHCO3 10 mM, initial pH 7.0, 1 min, 250 mM H2O2, 50 μg/mL heated extract total protein) was 1042 ppm, the “PAA (ppm), 5 min” value (NaHCO3 10 mM, initial pH 7.0, 5 min, 250 mM H2O2, 50 μg/mL heated extract total protein) was 2334 ppm and the “PAA (ppm), 30 min” value (NaHCO3 10 mM, initial pH 7.0, 30 min, 250 mM H2O2, 50 μg/mL heated extract total protein) was 2384 ppm. The “PAA (ppm), 1 min” value (NaHCO3 10 mM, initial pH 8.1, 1 min, 100 mM H2O2, 50 μg/mL heated extract total protein) was 418 ppm, the “PAA (ppm), 5 min” value (NaHCO3 10 mM, initial pH 8.1, 5 min, 100 mM H2O2, 50 μg/mL heated extract total protein) was 1035 ppm and the “PAA (ppm), 30 min” value (NaHCO3 10 mM, initial pH 8.1, 30 min, 100 mM H2O2, 50 μg/mL heated extract total protein) was 1633 ppm. For the same molecule, the “PAA (ppm), 1 min” value (NaHCO3 25 mM, initial pH 8.1, 1 min, 100 mM H2O2, 50 μg/mL heated extract total protein) was 497 ppm, the “PAA (ppm), 1 min” value (NaHCO3 25 mM, initial pH 8.1, 1 min, 250 mM H2O2, 50 μg/mL heated extract total protein) was 1037 ppm and the “PAA (ppm), 5 min” value (NaHCO3 25 mM, initial pH 8.1, 5 min, 100 mM H2O2, 50 μg/mL heated extract total protein) was 1319 ppm. For the same molecule, the “PAA (ppm), 5 min” value (NaHCO3 25 mM, initial pH 8.1, 5 min, 250 mM H2O2, 50 μg/mL heated extract total protein) was 2655 ppm, the “PAA (ppm), 30 min” value (NaHCO3 25 mM, initial pH 8.1, 30 min, 100 mM H2O2, 50 μg/mL heated extract total protein) was 2095 ppm and the “PAA (ppm), 30 min” value (NaHCO3 25 mM, initial pH 8.1, 30 min, 250 mM H2O2, 50 μg/mL heated extract total protein) was 3503 ppm.
